Measured values published in patent publication US20170021005A1.

Target: PltB pentamer (B subunit of typhoid toxin, as in the crystal structure) (Salmonella enterica serovar Typhi)
Experiment: interface analysis of the crystal structure (computed)

Work on “PltA (subunit of typhoid toxin, as in the crystal structure) (enzyme)” yielded a buried surface of 1660 Å^2 and a ΔiG (printed "ÅiG") of -17.7 kcal/mol.
